Data: patent publication US20110256127A1 (Genentech, published 2011)
“And” between values parts separate entries of the source, which are not always exact repeats. Equal values may be shown once.

T1: LRP6 (human; form used in the assay not stated) (human, UniProt O75581 20-1253, limits assumed)
T1 construct: probably an E3-E4 fragment for SPR
T1 sequence: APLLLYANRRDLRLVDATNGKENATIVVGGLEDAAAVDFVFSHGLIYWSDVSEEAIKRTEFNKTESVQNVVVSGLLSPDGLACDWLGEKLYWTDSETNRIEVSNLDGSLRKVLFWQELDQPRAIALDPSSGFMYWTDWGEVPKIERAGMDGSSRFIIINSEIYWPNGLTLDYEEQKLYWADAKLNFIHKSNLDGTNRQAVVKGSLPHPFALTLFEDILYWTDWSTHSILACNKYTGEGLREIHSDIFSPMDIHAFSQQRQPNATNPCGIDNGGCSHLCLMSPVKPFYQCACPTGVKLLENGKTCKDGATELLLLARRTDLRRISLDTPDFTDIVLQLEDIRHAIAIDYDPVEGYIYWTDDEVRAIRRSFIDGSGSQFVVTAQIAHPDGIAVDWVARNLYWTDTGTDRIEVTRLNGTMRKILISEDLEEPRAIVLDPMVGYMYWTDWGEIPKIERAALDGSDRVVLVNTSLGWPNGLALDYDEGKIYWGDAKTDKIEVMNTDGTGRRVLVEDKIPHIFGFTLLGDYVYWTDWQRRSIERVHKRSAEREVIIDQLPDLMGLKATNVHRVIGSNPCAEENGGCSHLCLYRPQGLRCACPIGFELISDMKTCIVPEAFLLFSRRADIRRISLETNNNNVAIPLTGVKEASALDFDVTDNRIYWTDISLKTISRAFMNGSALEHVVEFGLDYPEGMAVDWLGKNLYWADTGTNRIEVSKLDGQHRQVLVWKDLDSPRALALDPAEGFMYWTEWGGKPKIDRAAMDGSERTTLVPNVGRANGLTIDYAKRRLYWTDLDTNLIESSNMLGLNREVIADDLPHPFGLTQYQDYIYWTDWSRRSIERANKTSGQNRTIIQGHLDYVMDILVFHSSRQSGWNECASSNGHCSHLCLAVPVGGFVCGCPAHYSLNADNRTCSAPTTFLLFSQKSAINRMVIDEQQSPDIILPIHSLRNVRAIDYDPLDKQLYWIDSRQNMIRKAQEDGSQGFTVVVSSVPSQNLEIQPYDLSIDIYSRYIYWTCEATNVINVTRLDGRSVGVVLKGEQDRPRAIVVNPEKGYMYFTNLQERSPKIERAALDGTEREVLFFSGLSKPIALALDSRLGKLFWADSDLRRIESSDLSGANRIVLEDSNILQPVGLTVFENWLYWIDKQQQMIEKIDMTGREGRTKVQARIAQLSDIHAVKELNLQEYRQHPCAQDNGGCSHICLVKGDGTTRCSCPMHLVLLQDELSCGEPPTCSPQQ

T2: LRP6.E1-E2 fragment (biotinylated, His-tagged) (Homo sapiens (Human), UniProt O75581 19-644, biotinylated (AviTag system))
T2 construct: BLI antigen from baculovirus-infected insect cells; also called LRP6 E1-E2 protein fragment; not shown: His tag and AviTag
T2 sequence: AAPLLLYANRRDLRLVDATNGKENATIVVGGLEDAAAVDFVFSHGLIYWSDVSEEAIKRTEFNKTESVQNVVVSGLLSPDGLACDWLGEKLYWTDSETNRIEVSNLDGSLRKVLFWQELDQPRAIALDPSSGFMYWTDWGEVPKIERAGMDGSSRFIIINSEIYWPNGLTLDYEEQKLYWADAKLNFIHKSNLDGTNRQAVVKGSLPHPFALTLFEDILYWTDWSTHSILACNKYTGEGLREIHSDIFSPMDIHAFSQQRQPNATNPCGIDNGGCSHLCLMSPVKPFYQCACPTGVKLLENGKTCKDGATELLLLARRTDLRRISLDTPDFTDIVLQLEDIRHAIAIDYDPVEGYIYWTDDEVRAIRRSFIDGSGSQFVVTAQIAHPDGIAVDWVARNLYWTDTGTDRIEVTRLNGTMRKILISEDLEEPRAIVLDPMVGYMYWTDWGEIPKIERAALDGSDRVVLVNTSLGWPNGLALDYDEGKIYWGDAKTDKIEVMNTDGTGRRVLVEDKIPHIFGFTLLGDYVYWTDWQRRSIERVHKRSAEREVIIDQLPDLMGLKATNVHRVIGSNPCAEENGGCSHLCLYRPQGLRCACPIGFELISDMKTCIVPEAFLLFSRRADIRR


Legend:
LRP6.E1-E2-Fc = LRP6.E1-E2-Fc (human); assay: ELISA
LRP6.E3-E4-Fc = biological target: T3, LRP6.E3-E4-Fc (human); assay: ELISA
T3 construct: also called LRP6.E3-4-Fc

LRP6 on HEK293 cells = LRP6 on HEK293 cells (human, UniProt O75581 20-1613); assay: cell-based or functional assay
[1] = biological target: T1, LRP6 (human; form used in the assay not …); assay: SPR; LRP6 construct not stated; SPR
[2] = biological target: T1, LRP6 (human; form used in the assay not …); assay: Scatchard analysis; format not stated; Scatchard analysis
[3] = biological target: T2, LRP6.E1-E2 fragment (biotinylated, …); assay: biolayer interferometry, immobilized LRP6 E1-E2 fragment; Wnt9b at 200 nM; association then dissociation phase
Method: Biolayer interferometry was performed as previously described (Bourhis et al., 2010). Briefly, biotinylated, His-tagged LRP6 proteins were purified from baculovirus-infected insect cells using the AviTag system (GeneCopoeia). Binding kinetics were measured on the Octet RED System (ForteBio) using Streptavidin High Binding FA Biosensors loaded with 20 μg/ml LRP6 protein.
In these assays, antibody binding to LRP6 protein was allowed to reach equilibrium, and the subsequent wavelength shift in the interference pattern is shown for association and dissociation phases of Wnt protein binding.

Sequence of LRP6.E1-E2-Fc (human) (chain, as listed by the source limits assumed): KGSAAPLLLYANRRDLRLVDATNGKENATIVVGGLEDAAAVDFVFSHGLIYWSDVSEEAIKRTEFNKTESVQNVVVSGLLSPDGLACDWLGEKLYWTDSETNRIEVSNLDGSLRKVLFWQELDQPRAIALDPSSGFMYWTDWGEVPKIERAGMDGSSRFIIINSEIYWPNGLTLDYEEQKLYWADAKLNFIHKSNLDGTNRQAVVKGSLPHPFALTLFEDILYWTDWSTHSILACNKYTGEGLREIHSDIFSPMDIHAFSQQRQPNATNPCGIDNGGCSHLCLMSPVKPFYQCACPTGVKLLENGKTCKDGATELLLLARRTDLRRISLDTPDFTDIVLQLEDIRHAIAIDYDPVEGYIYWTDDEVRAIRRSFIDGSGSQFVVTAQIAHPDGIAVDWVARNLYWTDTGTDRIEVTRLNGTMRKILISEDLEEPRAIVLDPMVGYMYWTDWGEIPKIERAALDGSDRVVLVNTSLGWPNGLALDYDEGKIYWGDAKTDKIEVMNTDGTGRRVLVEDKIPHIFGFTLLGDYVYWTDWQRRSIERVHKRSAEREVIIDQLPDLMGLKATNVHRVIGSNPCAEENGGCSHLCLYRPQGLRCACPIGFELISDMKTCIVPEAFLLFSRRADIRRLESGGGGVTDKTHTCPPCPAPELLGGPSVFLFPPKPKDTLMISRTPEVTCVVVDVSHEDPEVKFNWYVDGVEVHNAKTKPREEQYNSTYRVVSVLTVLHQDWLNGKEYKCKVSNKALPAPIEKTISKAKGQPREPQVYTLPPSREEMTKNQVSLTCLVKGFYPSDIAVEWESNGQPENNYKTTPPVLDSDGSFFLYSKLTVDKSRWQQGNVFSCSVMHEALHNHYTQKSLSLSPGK
T3 sequence (chain, as listed by the source limits assumed): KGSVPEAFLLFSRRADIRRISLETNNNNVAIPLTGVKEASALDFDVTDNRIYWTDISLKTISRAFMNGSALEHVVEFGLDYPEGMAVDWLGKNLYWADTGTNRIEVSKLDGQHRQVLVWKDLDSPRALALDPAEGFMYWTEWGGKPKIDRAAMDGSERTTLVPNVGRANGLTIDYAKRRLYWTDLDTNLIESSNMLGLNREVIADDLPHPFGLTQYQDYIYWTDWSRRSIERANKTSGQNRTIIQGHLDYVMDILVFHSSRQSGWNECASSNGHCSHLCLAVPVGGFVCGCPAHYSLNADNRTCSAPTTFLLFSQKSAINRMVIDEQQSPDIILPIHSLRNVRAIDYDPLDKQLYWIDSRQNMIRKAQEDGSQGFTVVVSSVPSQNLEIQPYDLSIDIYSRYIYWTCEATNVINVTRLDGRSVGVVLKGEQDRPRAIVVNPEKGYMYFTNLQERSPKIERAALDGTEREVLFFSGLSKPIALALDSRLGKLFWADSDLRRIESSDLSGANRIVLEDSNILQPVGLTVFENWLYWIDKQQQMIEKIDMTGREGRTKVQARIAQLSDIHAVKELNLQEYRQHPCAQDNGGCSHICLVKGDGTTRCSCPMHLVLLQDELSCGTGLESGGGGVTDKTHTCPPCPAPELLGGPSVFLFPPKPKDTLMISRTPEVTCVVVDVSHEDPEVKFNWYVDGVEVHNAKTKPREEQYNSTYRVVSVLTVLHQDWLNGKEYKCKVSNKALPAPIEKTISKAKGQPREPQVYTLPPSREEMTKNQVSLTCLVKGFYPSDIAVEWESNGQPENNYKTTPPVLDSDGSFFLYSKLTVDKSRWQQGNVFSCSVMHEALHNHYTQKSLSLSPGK

Row | Binder | binding result (LRP6.E1-E2-Fc) | binding result (LRP6.E3-E4-Fc) | IC50, inhibition of signaling (Wnt luciferase reporter) in Wnt3a-stimulated HEK293 cells (LRP6 on HEK293 cells) | Kd [1] | Kd [2] | binding result [3]
1 | YW211.31 antibody (antibody, human IgG1, kappa, V domains shown, also called intact YW211.31 antibody) VH: EVQLVESGGGLVQPGGSLRLSCAASGFTFTSYYISWVRQAPGKGLEWVAEISPYSGSTYYADSVKGRFTISADTSKNTAYLQMNSLRAEDTAVYYCALRARPPIRLHPRGSVMDYWGQGTLVTVSS VL: DIQMTQSPSSLSASVGDRVTITCRASQDVSTAVAWYQQKPGKAPKLLIYSASFLYSGVPSRFSGSGSGTDFTLTISSLQPEDFATYYCQQSYTTPPTFGQGTKVEIKR | no binding | binds | ~1 ug/ml and ~6 nM | ~2 nM | ~0.6 nM | –
2 | Wnt9b (ligand, mouse, UniProt O35468 24-359, looked up, also called purified mouse Wnt9b) AAYFGLTGREVLTPFPGLGTAAAPAQAGAHLKQCDLLKLSRRQKQLCRREPGLAETLRDAAHLGLLECQFQFRQERWNCSLEGRTGLLQRGFKETAFLYAVSAAALTHALARACSAGRMERCTCDDSPGLESRQAWQWGVCGDNLKYSTKFLSNFLGPKRGSKDLRARADAHNTHVGIKAVKSGLRTTCKCHGVSGSCAVRTCWKQLSPFRETGQVLKLRYDTAVKVSSATNEALGRLELWAPAKPGGPAKGLAPRPGDLVYMEDSPSFCRPSKYSPGTAGRVCSRDSSCSSLCCGRGYDTQSRMVVFSCHCQVQWCCYVECQQCAQQELVYTCKR | – | – | – | – | – | binds
